Measurements as given in publication PMC4728560 (Scientific Reports, 2016).
Entries after “also recorded” stand apart in the source; their conditions may differ.

What was measured:
Bcl-xL [1] = molecular target: T1, Bcl-xL (Homo sapiens, UniProt Q07817, DEL27-82); experiment: Heterocomplex formation with Bcl-xL (native MS, SEC-MALS, gel filtration); format: binding; details: native MS: Bcl-xL(Δ27-81ΔCT), equimolar 100 μM, 30 °C, checked at 5 μM (for TCTP-R21A)
T1 construct: one containing the fragment 1-26, and the other the fragment 81-209; 6His (N, cleaved yes); made in house; host or cells: Escherichia coli BL21 (DE3) pRARE2
T1 sequence (Q07817 with tags, fused parts or gaps DEL27-82): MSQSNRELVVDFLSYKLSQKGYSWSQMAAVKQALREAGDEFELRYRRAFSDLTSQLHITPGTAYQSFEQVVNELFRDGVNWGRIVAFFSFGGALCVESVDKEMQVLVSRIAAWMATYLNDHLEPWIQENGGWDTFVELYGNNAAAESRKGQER
Description: When not specified, proteins tested for binding experiments were mixed at 100 μM, dialyzed against 10 mM CHES pH 9, 50 mM NaCl, 1 mM DTT or TCEP, depending on the analysis, and heated overnight at 30 °C.
For binding experiments, 100 to 200PL of protein mixture were loaded on a size exclusion chromatography (S200, GE Healthcare) column, while elution profiles were measured by UV absorption at 280 nm.
SEC-MALS experiments were performed on a multi-angle light scattering detector (miniDAWN TREOS, Wyatt Technologies) coupled in-line with SEC and an interferometric refractometer (Optilab T-rEX, Wyatt Technologies). See Supplementary Information for full details.
Prior to any mass spectrometry experiment, protein buffer was exchanged twice against a 50 mM ammonium acetate (NH4Ac) solution at pH 9.0 using microcentrifuge gel filtration columns (Zeba 0.5 ml, Thermo Scientific, Rockford, IL). Protein concentration was determined spectrophotometrically. […]
Supplementary Table 1. Measured molecular weights in denaturing conditions Sample Theoretical molecular Measured molecular Associated mass (Da) mass (Da) species […]
Gel filtration. For binding experiments, 100 to 200PL of protein mixture were loaded on a size exclusion chromatography (S200, GE Healthcare) column, while elution profiles were measured by UV absorption at 280nm. […]

Bcl-xL [2] = experiment: In cellulo BRET between Luciferase-fused TCTP and YFP-fused Bcl-xL; format: cell-based; details: MCF-7 cells; donor Luciferase-fused TCTP, acceptor YFP-fused Bcl-xL
Text: See Supplementary Information for full details.
Twenty-four hours later, cells
Protein expression and purification

Substance: TCTP: Translationally Controlled Tumor Protein (TCTP/tpt1), recombinant full-length
- complex formation with Bcl-xL (Bcl-xL [1]): forms a heterotetramer with Bcl-xL; also recorded: forms heterotetrameric complexes with Bcl-xL
- BRET signals with Bcl-xL (Bcl-xL [2]): saturable BRET signals
